From patent US20200087373A1 (UNIVERSITY OF COPENHAGEN, published 2020)
Ends that are not written are not given here. * marks the point of attachment. C16 diacid = O=C(O)CCCCCCCCCCCCCCC(=O)*; Stearoyl = CCCCCCCCCCCCCCCCCC(=O)*; Palmitoyl = CCCCCCCCCCCCCCCC(=O)*; Myristoyl = CCCCCCCCCCCCCC(=O)*; Lauroyl = CCCCCCCCCCCC(=O)*

B1: AT123 [hGIP(5-30)NH2-C14/30] (peptide)
peptide: TFISDYSIAMDKIHQQDFVNWLLAQK(Myristoyl)-NH2
modifications: N-terminus assumed
SMILES: CCCCCCCCCCCCCC(=O)NCCCC[C@H](NC(=O)[C@H](CCC(N)=O)NC(=O)[C@H](C)NC(=O)[C@H](CC(C)C)NC(=O)[C@H](CC(C)C)NC(=O)[C@H](Cc1c[nH]c2ccccc12)NC(=O)[C@H](CC(N)=O)NC(=O)[C@@H](NC(=O)[C@H](Cc1ccccc1)NC(=O)[C@H](CC(=O)O)NC(=O)[C@H](CCC(N)=O)NC(=O)[C@H](CCC(N)=O)NC(=O)[C@H](Cc1c[nH]cn1)NC(=O)[C@@H](NC(=O)[C@H](CCCCN)NC(=O)[C@H](CC(=O)O)NC(=O)[C@H](CCSC)NC(=O)[C@H](C)NC(=O)[C@@H](NC(=O)[C@H](CO)NC(=O)[C@H](Cc1ccc(O)cc1)NC(=O)[C@H](CC(=O)O)NC(=O)[C@H](CO)NC(=O)[C@@H](NC(=O)[C@H](Cc1ccccc1)NC(=O)[C@@H](N)[C@@H](C)O)[C@@H](C)CC)[C@@H](C)CC)[C@@H](C)CC)C(C)C)C(N)=O
B2: AT115 [hGIP(3-30)NH2-C18/30] (peptide)
peptide: EGTFISDYSIAMDKIHQQDFVNWLLAQK(Stearoyl)-NH2
B3: AT158 [hGIP(3-30)NH2[H18K]-C16diacid/18] (peptide)
peptide: EGTFISDYSIAMDKIK(C16 diacid)QQDFVNWLLAQK-NH2
modifications: N-terminus assumed
SMILES: CC[C@H](C)[C@H](NC(=O)[C@H](CO)NC(=O)[C@H](Cc1ccc(O)cc1)NC(=O)[C@H](CC(=O)O)NC(=O)[C@H](CO)NC(=O)[C@@H](NC(=O)[C@H](Cc1ccccc1)NC(=O)[C@@H](NC(=O)CNC(=O)[C@@H](N)CCC(=O)O)[C@@H](C)O)[C@@H](C)CC)C(=O)N[C@@H](C)C(=O)N[C@@H](CCSC)C(=O)N[C@@H](CC(=O)O)C(=O)N[C@@H](CCCCN)C(=O)N[C@H](C(=O)N[C@@H](CCCCNC(=O)CCCCCCCCCCCCCCC(=O)O)C(=O)N[C@@H](CCC(N)=O)C(=O)N[C@@H](CCC(N)=O)C(=O)N[C@@H](CC(=O)O)C(=O)N[C@@H](Cc1ccccc1)C(=O)N[C@H](C(=O)N[C@@H](CC(N)=O)C(=O)N[C@@H](Cc1c[nH]c2ccccc12)C(=O)N[C@@H](CC(C)C)C(=O)N[C@@H](CC(C)C)C(=O)N[C@@H](C)C(=O)N[C@@H](CCC(N)=O)C(=O)N[C@@H](CCCCN)C(N)=O)C(C)C)[C@@H](C)CC
B4: AT160 [hGIP(3-30)NH2[H18K]-C18/18] (peptide)
peptide: EGTFISDYSIAMDKIK(Stearoyl)QQDFVNWLLAQK-NH2
modifications: N-terminus assumed
SMILES: CCCCCCCCCCCCCCCCCC(=O)NCCCC[C@H](NC(=O)[C@@H](NC(=O)[C@H](CCCCN)NC(=O)[C@H](CC(=O)O)NC(=O)[C@H](CCSC)NC(=O)[C@H](C)NC(=O)[C@@H](NC(=O)[C@H](CO)NC(=O)[C@H](Cc1ccc(O)cc1)NC(=O)[C@H](CC(=O)O)NC(=O)[C@H](CO)NC(=O)[C@@H](NC(=O)[C@H](Cc1ccccc1)NC(=O)[C@@H](NC(=O)CNC(=O)[C@@H](N)CCC(=O)O)[C@@H](C)O)[C@@H](C)CC)[C@@H](C)CC)[C@@H](C)CC)C(=O)N[C@@H](CCC(N)=O)C(=O)N[C@@H](CCC(N)=O)C(=O)N[C@@H](CC(=O)O)C(=O)N[C@@H](Cc1ccccc1)C(=O)N[C@H](C(=O)N[C@@H](CC(N)=O)C(=O)N[C@@H](Cc1c[nH]c2ccccc12)C(=O)N[C@@H](CC(C)C)C(=O)N[C@@H](CC(C)C)C(=O)N[C@@H](C)C(=O)N[C@@H](CCC(N)=O)C(=O)N[C@@H](CCCCN)C(N)=O)C(C)C
B5: AT163 [hGIP(3-30)NH2[H18K]-C16/16] (peptide)
peptide: EGTFISDYSIAMDK(Palmitoyl)IKQQDFVNWLLAQK-NH2
modifications: N-terminus assumed
SMILES: CCCCCCCCCCCCCCCC(=O)NCCCC[C@H](NC(=O)[C@H](CC(=O)O)NC(=O)[C@H](CCSC)NC(=O)[C@H](C)NC(=O)[C@@H](NC(=O)[C@H](CO)NC(=O)[C@H](Cc1ccc(O)cc1)NC(=O)[C@H](CC(=O)O)NC(=O)[C@H](CO)NC(=O)[C@@H](NC(=O)[C@H](Cc1ccccc1)NC(=O)[C@@H](NC(=O)CNC(=O)[C@@H](N)CCC(=O)O)[C@@H](C)O)[C@@H](C)CC)[C@@H](C)CC)C(=O)N[C@H](C(=O)N[C@@H](CCCCN)C(=O)N[C@@H](CCC(N)=O)C(=O)N[C@@H](CCC(N)=O)C(=O)N[C@@H](CC(=O)O)C(=O)N[C@@H](Cc1ccccc1)C(=O)N[C@H](C(=O)N[C@@H](CC(N)=O)C(=O)N[C@@H](Cc1c[nH]c2ccccc12)C(=O)N[C@@H](CC(C)C)C(=O)N[C@@H](CC(C)C)C(=O)N[C@@H](C)C(=O)N[C@@H](CCC(N)=O)C(=O)N[C@@H](CCCCN)C(N)=O)C(C)C)[C@@H](C)CC
B6: AT159 [hGIP(3-30)NH2[K16R; H18K; K30R]-C16diacid/18] (peptide)
peptide: EGTFISDYSIAMDRIK(C16 diacid)QQDFVNWLLAQR-NH2
modifications: N-terminus assumed
SMILES: CC[C@H](C)[C@H](NC(=O)[C@H](CO)NC(=O)[C@H](Cc1ccc(O)cc1)NC(=O)[C@H](CC(=O)O)NC(=O)[C@H](CO)NC(=O)[C@@H](NC(=O)[C@H](Cc1ccccc1)NC(=O)[C@@H](NC(=O)CNC(=O)[C@@H](N)CCC(=O)O)[C@@H](C)O)[C@@H](C)CC)C(=O)N[C@@H](C)C(=O)N[C@@H](CCSC)C(=O)N[C@@H](CC(=O)O)C(=O)N[C@@H](CCCNC(=N)N)C(=O)N[C@H](C(=O)N[C@@H](CCCCNC(=O)CCCCCCCCCCCCCCC(=O)O)C(=O)N[C@@H](CCC(N)=O)C(=O)N[C@@H](CCC(N)=O)C(=O)N[C@@H](CC(=O)O)C(=O)N[C@@H](Cc1ccccc1)C(=O)N[C@H](C(=O)N[C@@H](CC(N)=O)C(=O)N[C@@H](Cc1c[nH]c2ccccc12)C(=O)N[C@@H](CC(C)C)C(=O)N[C@@H](CC(C)C)C(=O)N[C@@H](C)C(=O)N[C@@H](CCC(N)=O)C(=O)N[C@@H](CCCNC(=N)N)C(N)=O)C(C)C)[C@@H](C)CC
B7: AT105 [hGIP(3-30)NH2-C16/16] (peptide)
peptide: EGTFISDYSIAMDK(Palmitoyl)IHQQDFVNWLLAQK-NH2
B8: AT103 [hGIP(3-30)NH2-C12/30] (peptide)
peptide: EGTFISDYSIAMDKIHQQDFVNWLLAQK(Lauroyl)-NH2
B9: AT110 [hGIP(3-30)NH2-C14/3] (peptide)
peptide: Myristoyl-EGTFISDYSIAMDKIHQQDFVNWLLAQK-NH2
B10: AT106 [hGIP(3-30)NH2-C16/30] (peptide)
peptide: EGTFISDYSIAMDKIHQQDFVNWLLAQK(Palmitoyl)-NH2
B11: AT112 [hGIP(3-30)NH2-C14/30] (peptide)
peptide: EGTFISDYSIAMDKIHQQDFVNWLLAQK(Myristoyl)-NH2
B12: AT154 [hGIP(3-30)NH2-C12/16] (peptide)
peptide: EGTFISDYSIAMDK(Lauroyl)IHQQDFVNWLLAQK-NH2
notes: printed with the same formula as AT102 but a different ID and different values
B13: AT113 [hGIP(3-30)NH2-C18/3] (peptide)
peptide: Stearoyl-EGTFISDYSIAMDKIHQQDFVNWLLAQK-NH2
B14: AT104 [hGIP(3-30)NH2-C16/3] (peptide)
peptide: Palmitoyl-EGTFISDYSIAMDKIHQQDFVNWLLAQK-NH2
B15: AT148 [hGIP(3-30)NH2-C12/3] (peptide)
peptide: Lauroyl-EGTFISDYSIAMDKIHQQDFVNWLLAQK-NH2
notes: printed with the same formula as AT101 but a different ID and different values
B16: AT102 [hGIP(3-30)NH2-C12/16] (peptide)
peptide: EGTFISDYSIAMDK(Lauroyl)IHQQDFVNWLLAQK-NH2
B17: AT120 [hGIP(5-30)NH2-C12/30] (peptide)
peptide: TFISDYSIAMDKIHQQDFVNWLLAQK(Lauroyl)-NH2
modifications: N-terminus assumed
SMILES: CCCCCCCCCCCC(=O)NCCCC[C@H](NC(=O)[C@H](CCC(N)=O)NC(=O)[C@H](C)NC(=O)[C@H](CC(C)C)NC(=O)[C@H](CC(C)C)NC(=O)[C@H](Cc1c[nH]c2ccccc12)NC(=O)[C@H](CC(N)=O)NC(=O)[C@@H](NC(=O)[C@H](Cc1ccccc1)NC(=O)[C@H](CC(=O)O)NC(=O)[C@H](CCC(N)=O)NC(=O)[C@H](CCC(N)=O)NC(=O)[C@H](Cc1c[nH]cn1)NC(=O)[C@@H](NC(=O)[C@H](CCCCN)NC(=O)[C@H](CC(=O)O)NC(=O)[C@H](CCSC)NC(=O)[C@H](C)NC(=O)[C@@H](NC(=O)[C@H](CO)NC(=O)[C@H](Cc1ccc(O)cc1)NC(=O)[C@H](CC(=O)O)NC(=O)[C@H](CO)NC(=O)[C@@H](NC(=O)[C@H](Cc1ccccc1)NC(=O)[C@@H](N)[C@@H](C)O)[C@@H](C)CC)[C@@H](C)CC)[C@@H](C)CC)C(C)C)C(N)=O

Biological target: T1, human GIP receptor (human, UniProt P48546 22-466)
T1 construct: whole, on cells; also called hGIPR
T1 sequence (looked up): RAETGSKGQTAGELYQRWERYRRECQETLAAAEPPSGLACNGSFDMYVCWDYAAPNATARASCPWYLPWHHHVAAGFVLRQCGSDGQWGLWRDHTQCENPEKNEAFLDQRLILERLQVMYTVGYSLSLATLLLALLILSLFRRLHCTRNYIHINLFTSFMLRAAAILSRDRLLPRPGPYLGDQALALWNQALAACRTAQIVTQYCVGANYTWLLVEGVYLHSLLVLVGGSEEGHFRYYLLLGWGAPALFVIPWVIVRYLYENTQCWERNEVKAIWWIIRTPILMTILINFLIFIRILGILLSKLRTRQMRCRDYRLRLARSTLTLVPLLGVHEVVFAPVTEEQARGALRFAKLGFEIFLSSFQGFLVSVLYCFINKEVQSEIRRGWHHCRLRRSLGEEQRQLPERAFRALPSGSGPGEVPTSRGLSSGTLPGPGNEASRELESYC
Assay: 125I-hGIP competition binding, COS-7 cells expressing hGIPR;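 further: nonspecific binding taken as radioligand bound by untransfected cells, binding buffer with or without 2% HSA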
Protocol: After incubation, the cells were washed twice in ice-cold binding buffer (+/−2% HSA) and lysed using 200 mM NaOH with 1% SDS for 30 min. Nonspecific binding was determined as the binding of radioactive ligand to untransfected cells.

Question: Which results are given for B1?
Answer: IC50: 674 nM; log IC50: -6.2 log M

Question: How did the IC50 turn out when B2 was run?
Answer: 1520 nM

Question: What about the “log IC50” value of the same binder?
Answer: -5.8 log M

Question: Which IC50 does the source give for B3 here?
Answer: 8.2 nM

Question: For B4, which IC50 is on record?
Answer: 49 nM

Question: How did the IC50 turn out when B5 was run?
Answer: 205 nM

Question: With B6 as the binder, how does the IC50 read?
Answer: 18 nM

Question: Which results are given for B7?
Answer: IC50: 522 nM; log IC50: -6.3 log M

Question: What does the source list for B8?
Answer: IC50: 4710 nM; log IC50: -5.3 log M

Question: Which IC50 does the source give for B9 here?
Answer: 55.5 nM

Question: What about the “log IC50” value of the same binder?
Answer: -7.3 log M

Question: With B10 as the binder, how does the IC50 read?
Answer: 1410 nM

Question: And the “log IC50” value?
Answer: -5.9 log M

Question: Which results are given for B11?
Answer: IC50: 451 nM; log IC50: -6.3 log M

Question: How did the IC50 turn out when B12 was run?
Answer: 27 nM

Question: What about the “log IC50” value of the same binder?
Answer: -8 log M

Question: What does the source list for B13?
Answer: IC50: 41400 nM; log IC50: -4.4 log M

Question: B14 was tested. Which IC50 did it give?
Answer: 75 nM

Question: What about the “log IC50” value of the same binder?
Answer: -7.1 log M

Question: What does the source list for B15?
Answer: IC50: 24 nM; log IC50: -8 log M

Question: With B16 as the binder, how does the IC50 read?
Answer: 59.1 nM

Question: What about the “log IC50” value of the same binder?
Answer: -7.2 log M

Question: What does the source list for B17?
Answer: IC50: 1090 nM; log IC50: -6 log M
